Results taken from the DeepSol protein solubility set.

Test: soluble on expression in E. coli; label from the status in PepcDB or PDB records

Row | Sequence | soluble on expression in E. coli
1 | MNRILIVEDEKNLARFIELELQHENYETAVANDGRAGLELALNEEWDAILLDLMLPHLNGVEVCRRVRQVKQTPIIMITARDSVIDRVSGLDHGADDYIVKPFAIEELLARLRSLLRRVENAEQSAKQTTLQYRNLIVEKENRIVKRDEEIIDLTKREYELLLTLMENVNIVLTREVLLNKVWGYETEVETNVVDVYVRYLRNKIDHPDEESYIQTVRGTGYVMRT | not soluble
2 | MMFLNKVDKRKIALFQLLENAPMLTESKETVMQELELSEFIVNKTVAELNADFIEFGLSEDFQIVSDGIFLTLNESGTETSATLIDCYIKESLRFAMFQDFFFQRFDSVNEFALEHFVSHTLAYKEFKELKKMLENYQITINKEFHLVGNETNLREVTTLVFLQLYQRDFSLYGKKVLEQIRNFELFFSEKVHLNQRAGYAQAKCFHFLAVSLVRTQQQFYVEKKVDSQVLKQLAGDNQQNVFNWLESLQIPEPQRTNEGNYLLLFLIAEEWLQVASAALCQRFAEIQQLNRDLLSYLKIQFQLSEEVLQGFEQKVTIVHFKLFHFPIEANYSYLKMDITYFAETYTEYFSASRQFIQEQKTNPAVWDARRFLFYRYLLLMVDALPLKKVLAPITLCVDFSFGEAYNRMIQKNIEKITEWNIIFKAHVDESVQLILSDIHFVDWPEITQIIWLAPPRPVDWSHFIKTLSALRPHSGEEKKKSS | not soluble
3 | MILTITYTQPPATDLGYLLHKNPSRPQTFELNHGKAHIFYPEATSERCTVALLLDIDPIDLARGKKGSSGEGGLFDYVNDRPYVSSSFMSVAISRVFGTAMSGKCKEKPELAAIKLPLKAKIMMLPCKGGEEIIYRLFEPLGYKVDVEGYMLDEKFPEWGKSRYYTVSLEGEVRVRDLLNHIYVLIPVLDSEKHYWVGEDEIDKLFQHGEGWLVDHPEKELITGRYLIRKKRLVNQALKRLLEASDVVDDENEDDEPLKNEETEKKLNLNQQRLGTVVAVLKSVNAKKVIDLGCGEGNLLSLLLKDKSFEQITGVDVSYSVLERAKDRLKIDRLPEMQRKRISLFQSSLVYRDKRFSGYDAATVIEVIEHLDENRLQAFEKVLFEFTRPQTVIVSTPNKEYNFHYQNLFEGNLRHRDHRFEWTRKEFETWAVKVAEKYGYSVRFLQIGEIDDEFGSPTQMGVFTL | not soluble
4 | MGSDKIHHHHHHMKNLLITVFFLSLTLQLSAETGGSNAVIVEKTTASPAEKTPVYWQKMADGMSQALIKHFWGANFKGYENRFYFNYGSDLSNMTTNHYWPQAHAMDVMVDAYMRTGSKQYLNIYPLWWEGAPKFNFAGREEDPWWNVFVDDMEWIALAQIRMFESTKNTKYLKKARQTYDDWVWSTWGPEDEAPWFGGITWKTDVAKSKNACSNGPAALIAARLYNFYDAMGKKAGKPKQAYLNEAIKIYTWEKNNLFDRQTGAVYDSMNGEGKITKWVFSYNSGTFLGAAHELYKITGDKQYLADAVKAANFVIDHLSTNEGVLSDAEGGDGGLFHGIFFRYFVKLINDPALDSANYNKFRDYITHCATVMAEQGVNQKTMLYSGRWRKAPADDESVGLTSHLTGCMLMEAMCVLKHR | not soluble
5 | AIASYCRQEGKDKIIFVTKEDHETPSSAELIADDPNDPFEEQGLILPNGDINWNCPCLGGMASGPCGEQFKSAFSCFHYSQEEIKGSDCLDQFRAMQECMQKYPELYPQEDDEDELEKEKQNKDEESSVTQSSDTKEESSS | soluble
6 | KEMKYVVDTSVVISGRVTEMLESGEIKGTIIVPEAVMAELEAQANFGKMTGFQGLSEIEKLTKLAKDKGFEVIFAGERPKLEHIRLAKGGEIDNLIREVAAEFDAVLVTSDRVQHLVARAKGIETIYVRPRVVRPENTRIMSFFTP | not soluble
7 | MGSDKIHHHHHHMRLLSQVNLNSLKIVESAARHGNFTRAGEEQFITASAVSQRVKSLEDQLRFKIFQRGGNAVSLTPEGETYVSRVREALERIVAASMEATGQSQEHVLKISVLPTFAARWLFPRLPEFQRRYPDIVMRVSTSYATHEFSTSDFDLEIRYGDGHFNGLPSDLLFREDLTPVCSRKLFHEVLGDKPVSKVEPDDLRHFTLLHSDTCTQNWQSWLGFAGASFVLSETKSIYFDSCMMSYEAANAGMGFAVANRAYMASDIRAEKLVAPFAVHHPNSAGWYFVSPHKCLAARKVLLFKQWVMAEAALTQRQLDSEIRDLATEAV | not soluble
8 | MSLNFPHLSKQSLGLYPVVDDVSWIERLLPLGINTIQLRIKDPYQPDLEQQIARAIELGRQYDAQVFINDYWQLAIKHGAFGVHLGQEDIEDSNLSQLSTAGICLGLSTHGYYELLRIVQINPSYIALGHIFSTTTKQMPSKPQGLVRLALYQKLNDSIPYGESVGYPTVAIGGIDQSNAEQVWQCGVSSLAVVRAITLSESPKQVIEFFDQLMNTTSTSLVMEDYRAYEGHHHHHH | not soluble
9 | MSLSSAQQWSYVRQLQREIRRSDVLDLPLEKLPVVVFDLETSGFYPDQGDRILSIGAVKVVGLTIQEEETFYSVVHTDTVPPENILELTGLSVEELEAAPPLTSVLESFYAFIRHSTLVAHHASHEKAFMSHVTWQTMKLPFEHRVIDTSFLTKIVAPQELVTLDDCCAYYSIPVQNRHHAFEDSLMTAKLWIAAIAAAREAGEGHHHHHH | not soluble
10 | MSLFFGFTSCLDICPSTLTILGQAEKHRENLPETQRPQVLFVSINPDRDSPLRLSGYARAFHKNILTTTADTPALQRFATALGLRFRKVPGKSYAENPLDDTMDHPTAIVVLDPQGHHVGMIHPPFNAEEIPTDLQKLTKEITEGHHHHHH | not soluble
11 | FRVERSQPASQPLTYESGPDEVRAWLEAKAFSPRIVENLGILTGPQLFSLNKEELKKVCGEEGVRVYSQLTMQKAFLEKQQSGSEL | soluble
12 | MSLQVEGLSINLATIREQCGFAEAVDVCLKHGITAIAPWRDQVAAIGLEEASRIVRSNGLKLTGLCRGGFFPAPDAAGREKAIDDNKRAVDEAAELGADCLVLVVGGLPGGSKNIDAARSMVLEGIAAVLPHARAAGVPLAIEPLHPMYAADRACVNTLGQALDICEALGPGVGAAIDVYHVWWDPDLNEQIARAGRMKAILAHHICDWLVPTKDMLTDRGMMGDGVIDLKAIRREVEAAGFHGAQEVEIFSADNWWKRPAEEVIATCVERYRSCCRDDEGHHHHHH | soluble
13 | MSLKWSITQLRKYQGKPFEFDQTVSFDNLKESLDLIDLSPITIQGQLTIKSTEVVADIHITGTYTMPCARTLVPVKVPLDVTTTEVFDLEGYNQYNDDQDDVDEHYHIIKDGMVNLQDIVEDIVIIEKPMRAYSEQSDQMLTVGNGWEVIDEDQLDELAKQQEQDDSESRQVDPRLQKLQQLYDKEQEGHHHHHH | soluble
14 | MTKVQDITRESWILNTFPEWGTWLNEEIEQEVVPADNFAMWWLGNCGIWIKTPGGANVVMDLWSNRGKATKQVKDMVRGHQMANMAGARKLQPNLRAQPMVIDPFMINELDYYLVSHYHSDHIDINTAAAIINNPKLNHVKFVGPYECGEVWKNWGVPKDRIMILKPGDSFEFKDIKITAVESFDRTCLVTLPIQGADAQDGDLAGLAITDDDMARKAVNYIFETPGGTIYHGADSHFSNYFAKHGRDYDIDVVLNNYGENPIGIQDKMTSVDLLRMAENLRAKVVIPVHYDIWSNFMASTDEILELWKMRKERLQYDFHPFIWEVGGKYTYPQDQNRIEYHHPRGFDDCFLEDSNIQFKALL | not soluble
15 | MGSDKIHHHHHHMNSIVNDLNRALAQHLLVNVYQTNQEVVYTGYVTTVSDTGIILATYDDYGIPDGAVFLDLTAIDEVEFSSDDLDNMAFRIQTAQDEQFVQAGGLTLQFDGHRDLKRQVLSHAWVDHLVLMLVLKDDEHFYEGIVTSVAAEQVSLQLLNKFDYTDQPLLTLTPKDIEVIEFQGQELTLQGIALPHLQKLSHVAPTTVTDADQFVPTLQQLVGKEPLVALVPKHNRELFFVGRINTVTADGVIMNLLDMTGQFGGYTLMRLSELHEIVLKSDYLQTMRLFALLNRARQQPIQPVLNDERLFDATVDQFGARISQAAAFRTIIRLKLHDGTDLLGFPSQVGGQRFIFHEIDDQQVDQVGQVYRLADVDEVAFGYLDAYLVERQLRVEGDL | not soluble
16 | MGSDKIHHHHHHMLTLLSYHQKVLDHFKHQTKTWDFFTASQNKDEQLNQYKTELLKNTYKFDPEKDTSIYEKVAKSKQVLGLDINVYVYQAQYSDELNASVGFVNNEAHIVFSGQIIQLLDDDELLTVIAHELSHIKLYTMQGGDPEVAARIITAISNNYDSESSYMETARLFRLYTEIFCDRGAYEVQGSTGPVITSLVKTATGLKQVNAESYIKQAEEIFSADQQLKAASISHPENFIRARAIHLWHEKKEAAEEEIIRMIEGVTDIDALDIFKQKELAACTRQFLQLYLKPNWFRSTLVVSQAKQYFVDFSWDDKIILEETFITRMEKAHESVKNYFSYVLLDFALLDSTLEEIPFGWAFQFAEDIDIKETFDAVVKKELNLSDKKLQQHKQKTLSAFYNVKEGDGEQIYEG | not soluble
17 | MSLQGKFQPTWESLANYKIPEWFRNVKFGIWAHWGPQCVEGSGDWMARSLYMENSPEYRHHIANYGHPSEFGFKDIIPLWKAEKWDPDKLVAFYKKIGAQYFFALGNHHDNMDLWDSKYQPWNSVNMGPKKDILKGWERAARKHGLYFGVSLHADHAWSWYETSQRHDTQGPKKGIPYDGKLTKADGKGKWWEGYDPQDLYAQNHPLSQDSWDNGTIHRQWAWGNGVCLPTQEYCTNFYNRTLDVINRYNPDLLYFDVTVAPFYPISDAGLKIAAHFYNHNMSMQKGKLNAVMFGKILDANQRKALVWDVERGAPNKIIDEPWQSCSCLGGWHYNTSIYNNNQYKSAADVVKLLVDIVSKNGNLLLSVPLRADGTFDEKEEKILNEFGNWMNINKEAIYQTRPWKIFGEGPIADKDVQLNAQGFNEWAYSKADAKEIRFTQTDKNLYATVLGWPEDGKILIRSLAEGNGLYPTKIGRVELLGYGKVSFTRTDKGLVVDIPAKSLKNIAPVLKIRKEGHHHHHH | soluble
18 | VLTEMRADARVAILEELSEAELNFTLAKLDNLSLIEWAESLPDDIFSLALQLISRDELDLYDDAKQYDDDEVGHWADRKIATLPFNVSVGRAKKLLKTNLFESHQYMHLINRAHKFHGIVQYTDILTADDSVKINTLKLEDCLVLNVHQPLSESIEAIEHSAVPSVAIVDDENTLIGQLDWQFAINTQREIYETRLMAGTGMDEGDDLFSPIIKSSKKRGV | not soluble
19 | PKVSVIMTSYNKSDYVAKSISSILSQTFSDFELFIMDDNSNEETLNVIRPFLNDNRVRFYQSDISGVKERTEKTRYAALINQAIEMAEGEYITYATDDNIYMPDRLLKMVRELDTHPEKAVIYSASKTYHLNENRDIVKETVRPAAQVTWNAPCAIDHCSVMHRYSVLEKVKEKFGSYWDESPAFYRIGDARFFWRVNHFYPFYPLDEELDLNYITDQSIHFQLFELEKNEFVRNLPPQRNCRELRESLKKLGMG | soluble
20 | MIEIATSPATTTLVIAGDLDLAERDQFPEIAARVVGLRRQLLVIDMCRVTFMDSTGAAFLISLADSGRKRGGATVLRGCDDRDLFVLEVCGALELFRIDPDHACAPKTPATGVPAVEERPGRTR | not soluble
21 | MGVDNFSTTKKMFTWEVPGERVITLMTAGNLATTQALISLLEERSKTPSERSPSILERPTMFEVARLVGATLKEVIADTAGTGQVASSQFKASVIVGGQVKGGLPTLFLIYPEGNFIEVTEDSPFFQIGEAKYGKPILVRAYDPDLSFEDTIRLLMVSFDSTIKANLSVGLPLDLQVYANDSFAIKEQSRVEADDAYFQSISERWGDALRKALSDLPPYKSLLEHHHHHH | not soluble
